Laboratory results reported in paper PMC9978635.

What was measured:
Experiment in all cases: BioID2 proximity biotinylation, streptavidin purification, TMT quantitative LC-MS
Conditions in all cases: untreated (-K18) neurons, 3 wk; read off a plot
[1] = molecular target: CELF2
[2] = molecular target: NADH:ubiquinone oxidoreductase core subunit S8 (UniProt O00217)
[3] = molecular target: SRPR
[4] = molecular target: TAGLN3

UniProt O00217, sequence (O00217 35-210): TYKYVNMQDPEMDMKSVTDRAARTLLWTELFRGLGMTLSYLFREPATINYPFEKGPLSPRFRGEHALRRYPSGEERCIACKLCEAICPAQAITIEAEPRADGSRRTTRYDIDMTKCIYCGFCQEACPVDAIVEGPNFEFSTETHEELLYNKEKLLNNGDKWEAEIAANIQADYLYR

enrichment (log2 abundance ratio) [1]: 1.2
other: log2 abundance ratio (mutant/WT) (log2 abundance ratio) [1]: 2.1
enrichment (log2 abundance ratio) [2]: 2.5
other: log2 abundance ratio (mutant/WT) (log2 abundance ratio) [2]: 2
enrichment (log2 abundance ratio) [3]: 0.65
other: log2 abundance ratio (mutant/WT) (log2 abundance ratio) [3]: 2
enrichment (log2 abundance ratio) [4]: 2
other: log2 abundance ratio (mutant/WT) (log2 abundance ratio) [4]: 0.95
Substance: 0N4R tau[WT]-BioID2 (from UniProt P10636-6) P301L
